Laboratory results published in article PMC13161473 (2025).

T1: recombinant human TRPML1 E1 domain (human)
T1 chain: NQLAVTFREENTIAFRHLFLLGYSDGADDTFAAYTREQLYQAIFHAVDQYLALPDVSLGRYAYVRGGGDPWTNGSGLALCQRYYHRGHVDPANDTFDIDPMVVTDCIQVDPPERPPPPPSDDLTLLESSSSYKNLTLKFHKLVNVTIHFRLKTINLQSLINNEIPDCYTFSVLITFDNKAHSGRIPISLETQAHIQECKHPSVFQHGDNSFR

B1: Siglec-15: N172Q (protein)
parent chain: MEKSIWLLACLAWVLPTGSFVRTKIDTTENLLNTEVHSSPAQRWSMQVPPEVSAEAGDAAVLPCTFTHPHRHYDGPLTAIWRAGEPYAGPQVFRCAAARGSELCQTALSLHGRFRLLGNPRRNDLSLRVERLALADDRRYFCRVEFAGDVHDRYESRHGVRLHVTAAPRIVNISVLPSPAHAFRALCTAEGEPPPALAWSGPALGNSLAAVRSPREGHGHLVTAELPALTHDGRYTCTAANSLGRSEASVYLFRFHGASGASTVALLLGALGFKALLLLGVLAARAARRRPEHLDTPDTPPRSQAQESNYENLSQMNPRSPPATMCSP
B2: recombinant Siglec-15-N (263 AAs) (domain or fragment)
chain: FVRTKIDTTENLLNTEVHSSPAQRWSMQVPPEVSAEAGDAAVLPCTFTHPHRHYDGPLTAIWRAGEPYAGPQVFRCAAARGSELCQTALSLHGRFRLLGNPRRNDLSLRVERLALADDRRYFCRVEFAGDVHDRYESRHGVRLHVTAAPRIVNISVLPSPAHAFRALCTAEGEPPPALAWSGPALGNSLAAVRSPREGHGHLVTAELPALTHDGRYTCTAANSLGRSEASVYLFRFHGASGAST

Assays:
[1] = plasma membrane Siglec-15 level; conditions: glycan lost; control: Siglec-15-flag (wild type)
[2] = immunostaining flag/lamp1, Pearson's correlation; conditions: glycan lost; control: Siglec-15-flag (wild type)
[3] = Ca2+ release assay, Daoy cells; conditions: glycan lost; control: Siglec-15-flag (wild type)
[4] = biological target: CI-MPR used for biolayer interferometry (UniProt P11717 41-2491); assay: BLI
[5] = biological target: T1, recombinant human TRPML1 E1 domain; assay: BLI

Binder | localisation_or_trafficking [1] | localisation_or_trafficking [2] | other: lysosomal Ca2+ release [3] | Kd [4] [nM] | Kd [5] [nM]
B1 | no change | decreases | decreases | – | –
B2 | – | – | – | 1.04 | 0.499
